Target: T1, LFA-3, purified (human (endogenous in JY), UniProt P19256 29-250)
T1 sequence (looked up): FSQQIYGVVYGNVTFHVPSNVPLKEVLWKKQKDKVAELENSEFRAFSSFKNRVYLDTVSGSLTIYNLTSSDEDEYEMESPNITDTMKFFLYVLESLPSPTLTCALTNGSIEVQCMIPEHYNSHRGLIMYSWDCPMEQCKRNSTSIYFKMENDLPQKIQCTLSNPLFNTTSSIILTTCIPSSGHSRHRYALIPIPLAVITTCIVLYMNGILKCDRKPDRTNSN
Test: cell adhesion to purified protein

B1: CD2 on SKW3 cells (receptor, human (endogenous in SKW3), UniProt P06729 25-351, looked up)
chain: KEITNALETWGALGQDINLDIPSFQMSDDIDDIKWEKTSDKKKIAQFRKEKETFKEKDTYKLFKNGTLKIKHLKTDDQDIYKVSIYDTKGKNVLEKIFDLKIQERVSKPKISWTCINTTLTCEVMNGTDPELNLYQDGKHLKLSQRVITHKWTTSLSAKFKCTAGNKVSKESSVEPVSCPEKGLDIYLIIGICGGGSLLMVFVALLVFYITKRKKQRSRRNDEELETRAHRVATEERGRKPHQIPASTPQNPATSQHPPPPPGHRSQAPSHRPPPPGHRVQHQPQKRPPAPSGTQVHQQKGPPLPRPRVQPKPPHGAAENSLSPSSN
B1 was tested, and the “fold increase of cell binding on PMA stimulation” value was 3 fold.
